Data taken from patent US10662241B1, “HER3 antigen-binding molecules” (Hummingbird Bioscience Holdings Pte. Ltd., priority 2019, dated 2020).
Entries after “also recorded” stand apart in the source; their conditions may differ. Values belong to the molecule of their own block, whether it stands above or below them.

What was measured:
[1] = system: HEK293 cells engineered to express HER3; assay: Antibody internalisation, pHrodo imaging, HEK293 HER3; type: cell-based; settings: 120 nM, 24 hours, HEK293 overexpressing HER3
Procedure: (§1) Briefly, 100,000 HEK293 cells engineered to express HER3, HCC95, N87 or OVCAR8 cells were seeded in wells of 96-well tissue culture plates and cultured overnight at 37° C. in 5% CO2. […] The cells in culture were imaged every 30 min for 24 hours, in 4 different fields of each well. The maximum signal intensity in the FITC channel of each field was quantified at 24 hours.

OVCAR8 cells = assay: Antibody internalisation, pHrodo imaging, OVCAR8; type: cell-based; settings: 120 nM, 24 hours
Procedure: as §1

rat HER3 = target: T1, rat HER3 (Rattus norvegicus, UniProt Q62799); assay: ELISA cross-reactivity, rat HER3; type: binding
T1 construct: purchased Sino Biological Inc., China
T1 sequence (Q62799 20-1339): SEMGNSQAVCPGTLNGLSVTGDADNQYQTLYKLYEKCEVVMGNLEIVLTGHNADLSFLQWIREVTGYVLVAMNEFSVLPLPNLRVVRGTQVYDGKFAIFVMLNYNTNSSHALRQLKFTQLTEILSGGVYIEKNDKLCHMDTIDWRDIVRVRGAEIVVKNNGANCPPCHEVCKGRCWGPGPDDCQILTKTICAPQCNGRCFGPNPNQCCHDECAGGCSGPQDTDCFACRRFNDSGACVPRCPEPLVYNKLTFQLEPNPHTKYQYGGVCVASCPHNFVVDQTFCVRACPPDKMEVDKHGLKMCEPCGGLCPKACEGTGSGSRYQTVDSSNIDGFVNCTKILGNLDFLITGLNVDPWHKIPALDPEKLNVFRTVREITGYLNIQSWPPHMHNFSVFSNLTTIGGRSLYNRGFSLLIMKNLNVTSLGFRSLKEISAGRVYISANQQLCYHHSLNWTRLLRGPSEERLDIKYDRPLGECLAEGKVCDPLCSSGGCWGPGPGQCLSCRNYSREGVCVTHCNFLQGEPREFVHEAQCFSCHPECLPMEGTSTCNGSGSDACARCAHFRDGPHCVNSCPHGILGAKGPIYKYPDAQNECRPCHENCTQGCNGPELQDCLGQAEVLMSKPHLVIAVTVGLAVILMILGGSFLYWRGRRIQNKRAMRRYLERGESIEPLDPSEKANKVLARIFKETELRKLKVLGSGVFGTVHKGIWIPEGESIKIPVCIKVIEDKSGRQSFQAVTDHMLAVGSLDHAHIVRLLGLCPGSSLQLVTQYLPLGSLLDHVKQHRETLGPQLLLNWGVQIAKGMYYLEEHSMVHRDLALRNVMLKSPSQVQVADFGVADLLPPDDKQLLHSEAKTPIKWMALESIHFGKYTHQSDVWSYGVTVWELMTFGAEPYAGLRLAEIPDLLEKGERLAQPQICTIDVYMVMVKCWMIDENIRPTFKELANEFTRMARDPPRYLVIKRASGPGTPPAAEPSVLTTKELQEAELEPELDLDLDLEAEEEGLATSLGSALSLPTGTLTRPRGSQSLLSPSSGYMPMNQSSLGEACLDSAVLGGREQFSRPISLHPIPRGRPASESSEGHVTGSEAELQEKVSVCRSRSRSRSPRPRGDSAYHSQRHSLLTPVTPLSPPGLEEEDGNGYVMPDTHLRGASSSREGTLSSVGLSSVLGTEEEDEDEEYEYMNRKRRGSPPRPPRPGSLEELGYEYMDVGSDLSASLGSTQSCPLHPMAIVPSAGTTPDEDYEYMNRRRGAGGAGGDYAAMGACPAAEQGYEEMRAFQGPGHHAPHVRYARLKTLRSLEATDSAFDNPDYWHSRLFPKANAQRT
Procedure: (§2) ELISAs were used to determine the binding specificity of the antibodies. The antibodies were analysed for binding to human HER3 polypeptide, as well as respective mouse, rat and monkey homologues of HER3 (Sino Biological Inc., China). The antibodies were also analysed for their ability to bind to human EGFR and human HER2 (Sino Biological Inc., China).
(§3) ELISAs were carried out according to standard protocols. Briefly, 96-well plates (Nunc, Denmark) were coated with 0.1 μg/ml of target polypeptide in phosphate-buffered saline (PBS) for 16 h at 4° C. After blocking for 1 h with 1% BSA in […] (TBS) at room temperature, the anti-HER3 antibody was serially diluted with the highest concentration being 10 μg/ml, and added to the plate, Post 1 h incubation at room temperature, plates were washed three times with TBS containing 0.05% Tween 20 (TBS-T) and were then incubated with a HRP-conjugated anti-His antibody (Life Technologies, Inc., USA) for 1 h at room temperature. After washing, plates were developed with colorimetric detection substrate 3,3′,5,5′-tetramethylbenzidine (Turbo-TMB; Pierce, USA) for 10 min. The reaction was stopped with 2M H2SO4, and OD was measured at 450 nm. […]

human HER3 [2] = target: T2, human HER3 (Homo sapiens, UniProt P21860); assay: BLI competition between anti-HER3 antibodies for binding to HER3
Procedure: Bio-Layer Interferometry (BLI) experiments were performed using the Octet QK384 system (ForteBio), anti-Penta-HIS (HIS1K) coated biosensor tips (ForteBio, USA) were used to capture His-tagged human HER3 (75 nM; 300 s). […] The variable region of LJM-716 antibody was cloned in the PDZ vector having human IgG1 and IgKappa Fc backbone.
BLI experiments were performed as described in Example 3.5 with one alteration: 400 nM of competing antibodies were used. The variable regions of M-05-74 and M-08-11 antibodies were cloned in the PDZ vector having human IgG1 and IgKappa Fc backbone.

[3] = system: HER3-mediated signalling (pHER3, pAKT); assay: Inhibition of HER3-mediated signalling in vitro, phospho-western blot; type: cell-based; settings: N87 and FaDu cells, 50 μg/ml 4 hrs, NRG 100 ng/ml
Procedure: Briefly, N87 and FaDu cells were seeded in wells of a 6 well plate with 10% serum at 37° C., 5% CO2. After 16 hrs, cells were starved by culture overnight in 1% FBS cell culture medium (to reduce signalling elicited by growth factors in the serum). […] Proteins were then extracted, quantified using standard Bradford protein assay, fractionated by SDS-PAGE, and transferred to nitrocellulose membranes. The membranes were then blocked and immunoblotted with the following antibodies overnight at 4° C. anti-pHER3, anti-pAKT, pan anti-HER3, pan anti-AKT and anti-beta-actin. The blots were visualized via Bio-Rad Clarity Western ECL substrate, and bands were quantified using densiometric analysis; data were normalized to beta actin controls.
N87, FaDu or OvCAR8 cells were seeded in wells in a 6 well plate with 10% serum overnight at 37° C. with 5% CO2. […] Antibodies tested were: 10D1F.FcA (10D1), Seribantumab (SBT), Elegemtumab (LJM), Pertuzumab (PTM), Cetuximab (CTX), and Trastuzumab (TZ).
Before harvesting, cells were stimulated with 100 ng/ml of NRG1, Protein extracted from cell lines were quantified using standard Bradford protein assay, Protein samples (50 μg) were fractionated by SDS-PAGE and transferred to nitrocellulose membrane. […] The blots were quantified using densiometric analysis and data was normalised to beta actin. […]

FaDu cells = assay: CCK-8 proliferation assay, FaDu cells; type: cell-based; settings: 5 days, from 100 μg/ml
Procedure: (§4) Cell proliferation was measuring using the CCK-8 proliferation assay (Dojindo, Japan) after a period of 5 days, in accordance with the manufacturers instructions, Briefly 1×CCK-8 solution was added to each well followed by incubation for 2 h at 37° C. The OD was then measured at 450 nm.

cynomolgus macaque HER3 = assay: ELISA cross-reactivity, cynomolgus macaque HER3; type: binding
Procedure: as §2, §3

mouse HER3 = target: T3, mouse HER3 (Mus musculus, UniProt Q61526); assay: ELISA cross-reactivity, mouse HER3; type: binding
T3 construct: purchased Sino Biological Inc., China
T3 sequence (Q61526 20-1339): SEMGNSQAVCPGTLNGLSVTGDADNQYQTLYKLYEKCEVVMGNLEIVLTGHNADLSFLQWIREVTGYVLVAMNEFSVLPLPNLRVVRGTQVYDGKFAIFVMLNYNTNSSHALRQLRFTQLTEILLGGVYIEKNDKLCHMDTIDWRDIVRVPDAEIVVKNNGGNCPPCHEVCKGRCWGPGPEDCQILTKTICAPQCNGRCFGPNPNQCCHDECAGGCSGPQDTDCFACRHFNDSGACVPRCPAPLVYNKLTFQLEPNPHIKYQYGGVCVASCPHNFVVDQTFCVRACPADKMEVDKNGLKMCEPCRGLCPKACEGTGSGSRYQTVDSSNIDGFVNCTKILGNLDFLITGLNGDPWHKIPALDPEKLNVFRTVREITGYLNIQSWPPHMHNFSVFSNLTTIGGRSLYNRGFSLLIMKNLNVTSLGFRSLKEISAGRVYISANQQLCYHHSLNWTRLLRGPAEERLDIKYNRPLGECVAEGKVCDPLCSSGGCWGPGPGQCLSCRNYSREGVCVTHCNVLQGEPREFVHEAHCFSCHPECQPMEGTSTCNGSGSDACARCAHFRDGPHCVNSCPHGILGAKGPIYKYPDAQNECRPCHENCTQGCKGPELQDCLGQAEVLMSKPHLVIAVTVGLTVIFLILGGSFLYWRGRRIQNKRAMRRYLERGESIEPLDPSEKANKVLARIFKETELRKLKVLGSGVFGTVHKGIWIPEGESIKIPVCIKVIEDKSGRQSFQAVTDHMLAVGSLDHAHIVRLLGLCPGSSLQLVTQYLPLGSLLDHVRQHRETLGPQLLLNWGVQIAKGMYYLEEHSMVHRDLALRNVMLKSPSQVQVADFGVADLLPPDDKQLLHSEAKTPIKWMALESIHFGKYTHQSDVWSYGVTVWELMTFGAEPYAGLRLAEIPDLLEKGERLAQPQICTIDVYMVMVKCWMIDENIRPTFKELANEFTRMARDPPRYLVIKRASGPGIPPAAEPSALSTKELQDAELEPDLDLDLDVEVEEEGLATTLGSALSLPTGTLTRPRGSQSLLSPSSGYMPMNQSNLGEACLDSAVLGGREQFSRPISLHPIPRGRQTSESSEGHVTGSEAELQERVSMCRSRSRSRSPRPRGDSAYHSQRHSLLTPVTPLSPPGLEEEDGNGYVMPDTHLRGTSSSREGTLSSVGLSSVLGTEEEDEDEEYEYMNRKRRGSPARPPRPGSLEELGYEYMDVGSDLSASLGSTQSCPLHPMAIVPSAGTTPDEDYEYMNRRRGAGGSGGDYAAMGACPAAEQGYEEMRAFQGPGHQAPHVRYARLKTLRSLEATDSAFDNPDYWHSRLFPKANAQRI
Procedure: as §2, §3

N87 cells = assay: CCK-8 proliferation assay, N87 cells; type: cell-based; settings: N87, 5 days, from 100 μg/ml
Procedure: as §4

[4] = system: PI3K/AKT/mTOR and MAPK signalling; assay: Phosphoprotein Antibody Array, FaDu cells; type: cell-based; settings: 50 μg/ml 4 hrs, NRG 100 ng/ml
Procedure: In further experiments the inventors investigated the intracellular signalling pathways affected by anti-HER3 antibody-mediated inhibition of HER3.
FaDu cells were seeded in wells of a 6 well plate with 10% serum at 37° C., 5% CO2. After 16 hrs, cells were starved by culture overnight in 1% FBS cell culture medium. […] Proteins were then extracted, quantified using standard Bradford protein assay, and incubated overnight with pre-blocked Phosphoprotein Antibody Array membrane (Ray Biotech) at 4° C., The membrane was then washed with washing buffer and incubated with detection antibody cocktail for 2 hrs at room temperature, followed by washing and incubation with HRP-Conjugated anti-IgG. After 2 hrs the membrane was washed and probed using the kit detection buffer. Images were captured with Syngene Gbox imaging system, the intensity of each dot/phosphoprotein was measured and percent inhibition was calculated by comparison with intensity measured for cells treated in the same way in the absence of the antibody.

human EGFR = target: T4, human EGFR (Homo sapiens, UniProt P00533); assay: ELISA specificity, human EGFR; type: binding; settings: antibody up to 10 μg/ml
T4 construct: purchased Sino Biological Inc., China
Procedure: as §2
(§5) ELISAs were carried out according to standard protocols. Briefly, 96-well plates (Nunc, Denmark) were coated with 0.1 μg/ml of target polypeptide in phosphate-buffered saline (PBS) for 16 h at 4° C. After blocking for 1 h with 1% BSA in […] (TBS) at room temperature, the anti-HER3 antibody was serially diluted with the highest concentration being 10 μg/ml, and added to the plate, Post 1 h incubation at room temperature, plates were washed three times with TBS containing 0.05% Tween 20 (TBS-T) and were then incubated with a HRP-conjugated anti-His antibody (Life Technologies, Inc., USA) for 1 h at room temperature. […] The reaction was stopped with 2M H2SO4, and OD was measured at 450 nm.
(§6) The antibodies were analysed for their ability to bind to human HER3 polypeptide as well as human HER1 (EGFR) and human HER2 (Sino Biological Inc., China). […]
(§7) ELISAs were carried out according to standard protocols. […] The reaction was stopped with 2M H2SO4, and OD was measured at 450 nm.

human HER2 = target: T5, human HER2 (Homo sapiens, UniProt P04626); assay: ELISA specificity, human HER2; type: binding; settings: antibody up to 10 μg/ml
T5 construct: purchased Sino Biological Inc., China
Procedure: as §2, §5, §6, §7

human HER3 [5] = target: T2, human HER3; assay: Immunohistochemistry of frozen human tissue sections; parameters: from tissue; host or cells: arrays of frozen tissue sections; settings: mIgG2a format
Procedure: Anti-HER3 antibody 10D1F in mIgG2a format was evaluated for its ability to be used in immunohistochemistry for the detection of human HER3 protein.
Processing of sections was performed using Bond reagents (Leica Biosystems). Arrays of commercially-available frozen tissue sections were obtained. Slides were dried in a desiccator for 10 min and then subjected to the following treatments, with water washes and/or TBS-T rinses between steps: (i) fixation by treatment with 100% acetone for 10 min at room temperature; (ii) endogenous peroxidase blocking by treatment with 3% (v/v) H2O2 for 15 min at room temperature; (iii) blocking by treatment with 10% goat serum for 30 min at room temperature, (iv) incubation with 10D1F-mIgG2a at 1:250 dilution of a 6.2 mg/ml solution overnight at 4° C., (v) incubation with HRP-polymer conjugated goat anti-mouse antibody for 30 min at room temperature, and (vi) development with Bond Mixed DAB Refine for 5 min at room temperature, followed by rinsing with deionised water and 1× Bond Wash to stop the reaction.
Slides were then dehydrated, mounted in synthetic mounting media and scanned with high resolution.

Cross-reactivity with rat HER3 (rat HER3): substantial cross-reactivity
Cross-reactivity with mouse HER3 (mouse HER3): substantial cross-reactivity
Binding to human EGFR (human EGFR): not to bind
B1: 10D1: anti-HER3 antibody clone, parental mouse; VH = SEQ ID NO:24, VL = SEQ ID NO:74 (antibody, V domains shown)
VH: DVQLQESGPDLVKPSQSLSLTCTVTGYSITSGYSWHWIRQFPGNKLEWMGSIHYSGGTNYNPSLKSRISITRDTSKNQFFLQLNSVTTEDTATYFCARMTTAPRYPFDYWGQGTTLTVSS
VL: DIVMTQSQKFMSTSVGDRVSVTCKASQIVGSNVAWYQQKPGQSPKPLIYSASYRYSGVPDRFTASGSGTDFTLTITNVQSEDLAEYFCQQYSSHPLTFGAGTKLELK
modifications: 10D1 heavy chain variable region; 10D1 light chain variable region
Competition with MM-121 and/or LJM-716 for binding to HER3 (human HER3 [2]): not to compete with MM-121 and/or LJM-716 for binding to HER3; also recorded: distinct and topologically distant epitope of HER3 than MM-121 and/or LJM-716
Inhibition of HER3 phosphorylation and downstream signalling [3]: inhibit HER3 phosphorylation and downstream signalling
Inhibition of cell proliferation (FaDu cells): dose-dependent inhibition of cell proliferation
Cross-reactivity with cynomolgus macaque HER3 (cynomolgus macaque HER3): substantial cross-reactivity
Inhibition of cell proliferation (N87 cells): dose-dependent inhibition of cell proliferation
Inhibition of intracellular signalling pathways [4]: inhibit PI3K/AKT/mTOR and MAPK signalling

Binding to human HER2 (human HER2): bind to human HER2 and human EGFR
Cross-reactivity with rat HER3 (rat HER3): substantial cross-reactivity
Cross-reactivity with mouse HER3 (mouse HER3): substantial cross-reactivity
Binding to human EGFR (human EGFR): bind to human HER2 and human EGFR
B2: 4-35-B2: anti-HER3 antibody clone; VH = SEQ ID NO:127, VL = SEQ ID NO:135 (antibody, V domains shown)
VH: EIQLQQSGPELVKPGASVKVSCKASGYSFTDYNMYWVKQSHGKSLEWIGHINPYNGGTTYNQKFKGRATLTVDKSSSTAFMHLNSLTSEDSAVYFCVSLRWGAMDYWGQGTSVTVSS
VL: QIVLTQSPALMSASPGEKVTMTCSASSSVSYMYWYQQKPRSSPKPWIYLTSNLASGVPARFSGSGSGTSYSLTISSMEAEDAATYYCQQWNSNPYTFGGGTKLEIK
modifications: 4-35-B2 heavy chain variable region; 4-35-B2 light chain variable region
Cross-reactivity with cynomolgus macaque HER3 (cynomolgus macaque HER3): substantial cross-reactivity

Second part, the molecule before the results:

Molecule: LJM716: anti-HER3 antibody clone LJM716 (Garner et al., Cancer Res (2013) 73: 6024-6035), also referred to as Elgemtumab [reference compound]
Internalisation [1]: significant internalization
Internalisation (OVCAR8 cells): Modest to moderate internalization

B3: 10D1F: Anti-HER3 antibody 10D1F (VH SEQ ID NO:36, VL SEQ ID NO:83) in mIgG2a format, used for immunohistochemistry (antibody, V domains shown)
VH: QVQLQESGPGLVKPSQTLSLTCTVSGYSITSGYSWHWIRQHPGKGLEWIGSIRYSGGTDYNPSLKSLVTISADTSKNQFSLKLSSVTAADTAVYYCARMTTAPWYPFDYWGQGTTVTVSS
VL: DIQMTQSPSSVSASVGDRVTITCKASQIVGSNVAWYQQKPGKAPEPLIYSASYLYSGVPSRFSGSGSGTDFTLTISSLQPEDFATYYCQQYSSHPLTFGQGTKLEIK
modifications: mouse IgG2a constant regions; 10D1_c89 heavy chain variable region; 10D1_c89 light chain variable region
Staining of malignant and normal human tissue sections (human HER3 [5]): preferentially stained malignant human tissue sections, with low cross-reactivity to normal tissue
